US20050037449

Legend:
[1] = target: T1, c-Jun (1-79) expressed in E. coli as an N-terminal GST fusion protein, P05412
T1 chain: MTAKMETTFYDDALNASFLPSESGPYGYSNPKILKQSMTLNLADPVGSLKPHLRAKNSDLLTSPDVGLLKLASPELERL

[2] = target: human BMAL1 expressed in E. coli as an N-terminal GST fusion protein [GST: P08515]
[3] = target: glutathion S-transferase (GST) [GST: P08515]

B1: active form of human JNK3 (JNK3 α1) expressed as an N-terminal His-tagged protein (protein)
chain: MSLHFLYYCSEPTLDVKIAFCQGFDKQVDVSYIAKHYNMSKSKVDNQFYSVEVGDSTFTVLKRYQNLKPIGSGAQGIVCAAYDAVLDRNVAIKKLSRPFQNQTHAKRAYRELVLMKCVNHKNIISLLNVFTPQKTLEEFQDVYLVMELMDANLCQVIQMELDHERMSYLLYQMLCGIKHLHSAGIIHRDLKPSNIVVKSDCTLKILDFGLARTAGTSFMMTPYVVTRYYRAPEVILGMGYKENVDIWSVGCIMGEMVRHKILFPGRDYIDQWNKVIEQLGTPCPEFMKKLQPTVRNYVENRPKYAGLTFPKLFPDSLFPADSEHNKLKASQARDLLSKMLVIDPAKRISVDDALQHPYINVWYDPAEVEAPPPQIYDKQLDEREHTIEEWKELIYKEVMNSEEKTKNGVVKGQPSPSAQVQQ
- in vitro phosphorylation ([γ-32P]ATP kinase assay, SDS-PAGE, autoradiography) [1]: JNK3 did phosphorylate the GST-c-Jun (1-79) used as a positive control
- in vitro phosphorylation ([γ-32P]ATP kinase assay, SDS-PAGE, autoradiography) [2]: The phosphorylation of GST-BMAL1 was observed in this experimental system
- in vitro phosphorylation with 0 ng, 14 ng, 28 ng and 70 ng of active JNK3 [2]: GST-BMAL1 was phosphorylated in a JNK3 dose-dependent manner
- in vitro phosphorylation ([γ-32P]ATP kinase assay, SDS-PAGE, autoradiography) [3]: did not phosphorylate the GST

B2: mouse ERK2 (New England Biolabs) (protein)
chain: MAAAAAAGPEMVRGQVFDVGPRYTNLSYIGEGAYGMVCSAYDNLNKVRVAIKKISPFEHQTYCQRTLREIKILLRFRHENIIGINDIIRAPTIEQMKDVYIVQDLMETDLYKLLKTQHLSNDHICYFLYQILRGLKYIHSANVLHRDLKPSNLLLNTTCDLKICDFGLARVADPDHDHTGFLTEYVATRWYRAPEIMLNSKGYTKSIDIWSVGCILAEMLSNRPIFPGKHYLDQLNHILGILGSPSQEDLNCIINLKARNYLLSLPHKNKVPWNRLFPNADSKALDLLDKMLTFNPHKRIEVEQALAHPYLEQYYDPSDEPIAEAPFKFDMELDDLPKEKLKELIFEETARFQPGYRS
- in vitro phosphorylation, ERK2 added instead of JNK3 [2]: substantially not phosphorylated by any of JNK1 and JNK2 (which are members of the JNK family), and ERK2

B3: human JNK2 (Upstate Biotechnology) (protein)
chain: MSDSKCDSQFYSVQVADSTFTVLKRYQQLKPIGSGAQGIVCAAFDTVLGINVAVKKLSRPFQNQTHAKRAYRELVLLKCVNHKNIISLLNVFTPQKTLEEFQDVYLVMELMDANLCQVIHMELDHERMSYLLYQMLCGIKHLHSAGIIHRDLKPSNIVVKSDCTLKILDFGLARTACTNFMMTPYVVTRYYRAPEVILGMGYKENVDIWSVGCIMGELVKGCVIFQGTDHIDQWNKVIEQLGTPSAEFMKKLQPTVRNYVENRPKYPGIKFEELFPDWIFPSESERDKIKTSQARDLLSKMLVIDPDKRISVDEALRHPYITVWYDPAEAEAPPPQIYDAQLEEREHAIEEWKELIYKEVMDWEERSKNGVVKDQPSDAAVSSNATPSQSSSINDISSMSTEQTLASDTDSSLDASTGPLEGCR
- in vitro phosphorylation, JNK2 added instead of JNK3 [2]: substantially not phosphorylated by any of JNK1 and JNK2 (which are members of the JNK family), and ERK2

B4: human JNK1 (Upstate Biotechnology) (protein)
chain: MSRSKRDNNFYSVEIGDSTFTVLKRYQNLKPIGSGAQGIVCAAYDAILERNVAIKKLSRPFQNQTHAKRAYRELVLMKCVNHKNIIGLLNVFTPQKSLEEFQDVYIVMELMDANLCQVIQMELDHERMSYLLYQMLCGIKHLHSAGIIHRDLKPSNIVVKSDCTLKILDFGLARTAGTSFMMTPYVVTRYYRAPEVILGMGYKENVDLWSVGCIMGEMVCHKILFPGRDYIDQWNKVIEQLGTPCPEFMKKLQPTVRTYVENRPKYAGYSFEKLFPDVLFPADSEHNKLKASQARDLLSKMLVIDASKRISVDEALQHPYINVWYDPSEAEAPPPKIPDKQLDEREHTIEEWKELIYKEVMDLEERTKNGVIRGQPSPLAQVQQ
- in vitro phosphorylation, JNK1 added instead of JNK3 [2]: substantially not phosphorylated by any of JNK1 and JNK2 (which are members of the JNK family), and ERK2
